Assay results reported in patent publication US12097252B2, “Formulation of a peptide vaccine” (priority 2016, dated 2024).
Bridge positions count the residues as written; N and C are the ends. Ends that are not written are not given here.

Experiment: In-use chemical stability of vaccine emulsions by UPLC/MS after extraction of peptides
Type: physicochemical
Settings: for Related substances (≥0.05%) [Area %]: peak in reconstituted PRAME-DP-5P; for Peptides and related substances (≥0.05%) [Area %]: peak in reconstituted P53-DP-5P
Description: For samples showing complete dissolution, an emulsion stability of >2 hours, and a chemical stability of the Drug Product solutions (without additional dilution) of >2 hours, the in-use chemical stability of the vaccine emulsions with Montanide ISA 51 VG was monitored with UPLC/MS. For analysis of chemical stability of the reconstituted and emulsified Drug Products, samples were analyzed at various time points, at least up to 2 hours after dissolution. UPLC/MS analysis was performed according to the method describe above for chemical stability of the Drug Product solution, using an extra sample preparation step for extraction of the peptides from the vaccine emulsion. For sample preparation of emulsified products, the following steps were applied: • Take 300 μL Reconstitution Solution and add this to a 15 mL Greiner tube • Add 100 μL heptane • Add 200 μL of the Drug Product emulsion. Pipet the solution up and down three times. • Vortex the mixture for 30 seconds • Centrifuge the mixture for 5 minutes at 4400 rpm to obtain a two-phase system • With a 20-200 μL pipette, take a 100 μL sample from the bottom layer and transfer to a total recovery UPLC vial. • Analyze with UPLC/UV/MS according to the method described for chemical stability of the Drug Product solutions. Results Solvent Screening for Reconstitution and Emulsification
Analysis of chemical stability was performed by UPLC-MS as described in Example 1, at the section describing methods for analysis of in-use chemical stability of HPV-DP-6P and HPV-DP-7P vaccine emulsions including extraction of the peptides from the vaccine emulsion.
Purity of the Drug Product at different time points was calculated as follows: Purity (%)=100%−Sum of impurities≥0.05% area

Substance | Related substances (≥0.05%) [Area %] (in-use storage t = 0 h) | Related substances (≥0.05%) [Area %] (in-use storage t = 1 h) | Related substances (≥0.05%) [Area %] (in-use storage t = 2 h) | Related substances (≥0.05%) [Area %] (in-use storage t = 3 h) | Peptides and related substances (≥0.05%) [Area %] (in-use storage t = 0 h) | Peptides and related substances (≥0.05%) [Area %] (in-use storage t = 1 h) | Peptides and related substances (≥0.05%) [Area %] (in-use storage t = 2 h) | Peptides and related substances (≥0.05%) [Area %] (in-use storage t = 3 h)
SEQ ID NO 155: PRAME-derived peptide, component of PRAME DP-5P (WTVWSGNRASLYSFPEPEAAQPMTKKRKVDGLST) | 23.35 | 22.85 | 22.65 | 22.62 |  |  |  | 
SEQ ID NO 203 intramolecular disulfide: related substance: intramolecular disulfide of the peptide set forth in SEQ ID NO: 203 (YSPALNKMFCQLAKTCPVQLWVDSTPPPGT; disulfide 10-16 (inferred)) |  |  |  |  | < | 1.05 | 1.54 | 1.87
SEQ ID NO 203: P53-derived synthetic long peptide, component of P53 DP-5P (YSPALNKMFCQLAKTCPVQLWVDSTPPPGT) |  |  |  |  | 13.73 Area % | 16.73 | 16.21 | 15.56
SEQ ID NO 156: PRAME-derived peptide, component of PRAME DP-5P (IPVEVLVDLFLKEGACDELFSYLIEKVKRKKNVLR) | 10.56 | 10.52 | 10.17 | 9.98 |  |  |  | 
SEQ ID NO 193: P53-derived synthetic long peptide, component of P53 DP-5P (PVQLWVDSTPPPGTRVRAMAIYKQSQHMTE) |  |  |  |  | 23.90 Area % | 22.38 | 22.31 | 22.19
SEQ ID NO 191: P53-derived synthetic long peptide, component of P53 DP-5P (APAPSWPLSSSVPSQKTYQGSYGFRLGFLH) |  |  |  |  | 30.37 Area % | 28.75 | 28.81 | 28.81
SEQ ID NO 160: PRAME-derived peptide, component of PRAME DP-5P (LRRLLLSHIHASSYISPEKEEQYIAQFTSQFLS) | 13.61 | 13.49 | 13.34 | 13.40 |  |  |  | 
SEQ ID NO 194: P53-derived synthetic long peptide, component of P53 DP-5P (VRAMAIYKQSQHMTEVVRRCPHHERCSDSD) |  |  |  |  | 13.00 Area % | 12.02 | 11.87 | 11.63
SEQ ID NO 153: PRAME-derived peptide, component of PRAME DP-5P (LETFKAVLDGLDVLLAQEVRPRRWKLQVLDLRK) | 21.89 | 22.70 | 22.51 | 22.59 |  |  |  | 
SEQ ID NO 166: PRAME-derived peptide, component of PRAME DP-5P (SYEDIHGTLHLERLAYLHARLRELLCELGRPSMV) | 13.49 | 14.15 | 13.81 | 13.59 |  |  |  | 
SEQ ID NO 201: P53-derived synthetic long peptide, component of P53 DP-5P (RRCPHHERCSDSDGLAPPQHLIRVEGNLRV) |  |  |  |  | 12.43 Area % | 11.73 | 11.72 | 11.60
